± gives the uncertainty stated by the source.
B1: Transcription elongation factor A N-terminal and central domain-containing protein, residues 30 to 77; numbered along this chain, Q8N8B7 (parent)
chain: LTELETIYVTKEHLQETDVVRAVYRVLKNCPSVALKKKAKCLLSKWKA

Variants of: B1
Assay: abundance fitness (aPCA) (normalised: wild type 0, dead -1); higher = more abundant; growth selection in yeast, the domain comes from the species named
Details: Homo sapiens

Variant	abundance fitness
LTELETIYVTKEHLQETDVVRAVYRVLKNCNSVALKKKAKCLLSKWKA [P31N]	-0.016 ± 0.1
LTELETIYVTKEHLQETDVVRAVYRVLKNCLSVALKKKAKCLLSKWKA [P31L]	0.355 ± 0.063
LTELETIYVTKEHLQETDVVRAVYRVLKNCMSVALKKKAKCLLSKWKA [P31M]	0.457 ± 0.08
LTELETIYVTKEHLQETDVVRAVYRVLKNCQSVALKKKAKCLLSKWKA [P31Q]	-0.017 ± 0.096
LTELETIYVTKEHLQETDVVRAVYRVLKNCGSVALKKKAKCLLSKWKA [P31G]	0.298 ± 0.06
LTELETIYVTKEHLQETDVVRAVYRVLKNCHSVALKKKAKCLLSKWKA [P31H]	-0.349 ± 0.11
LTELETIYVTKEHLQETDVVRAVYRVLKNCISVALKKKAKCLLSKWKA [P31I]	0.371 ± 0.085
LTELETIYVTKEHLQETDVVRAVYRVLKNCKSVALKKKAKCLLSKWKA [P31K]	0.291 ± 0.092
LTELETIYVTKEHLQETDVVRAVYRVLKNCFSVALKKKAKCLLSKWKA [P31F]	0.511 ± 0.092
LTELETIYVTKEHLQETDVVRAVYRVLKNCESVALKKKAKCLLSKWKA [P31E]	-0.357 ± 0.073
LTELETIYVTKEHLQETDVVRAVYRVLKNCASVALKKKAKCLLSKWKA [P31A]	0.119 ± 0.065
LTELETIYVTKEHLQETDVVRAVYRVLMNCPSVALKKKAKCLLSKWKA [K28M]	-0.749 ± 0.13
LTELETIYVTKEHLQETDVVRAVYRVLDNCPSVALKKKAKCLLSKWKA [K28D]	-0.789 ± 0.19
LTELETIYVTKEHLQETDVVRAVYRVLGNCPSVALKKKAKCLLSKWKA [K28G]	-0.402 ± 0.083
LTELETIYVTKEHLQETDVVRAVYRVLINCPSVALKKKAKCLLSKWKA [K28I]	-0.149 ± 0.15
LTELETIYVTKEHLQETDVVRAVYRVLVNCPSVALKKKAKCLLSKWKA [K28V]	-0.142 ± 0.073
LTELETIYVTKEHLQETDVVRAVYRVLQNCPSVALKKKAKCLLSKWKA [K28Q]	-0.734 ± 0.16
LTELETIYVTKEHLQETDVVRAVYRVLTNCPSVALKKKAKCLLSKWKA [K28T]	-0.169 ± 0.093
LTELETIYVTKEHLQETDVVRAVYRVLLNCPSVALKKKAKCLLSKWKA [K28L]	-0.237 ± 0.077
LTELETIYVTKEHLQETDVVRAVYRVLRNCPSVALKKKAKCLLSKWKA [K28R]	-0.033 ± 0.074
LTELETIYVTKEHLQETDVVRAVYRVLENCPSVALKKKAKCLLSKWKA [K28E]	-0.679 ± 0.13
LTELETIYVTKEHLQETDVVRAVYRVLHNCPSVALKKKAKCLLSKWKA [K28H]	-0.435 ± 0.13
LTELETIYVTKEHLQETDVVRAVYRVLWNCPSVALKKKAKCLLSKWKA [K28W]	0.04 ± 0.092
LTELETIYVTKEHLQETDVVRAVYRVLFNCPSVALKKKAKCLLSKWKA [K28F]	-0.247 ± 0.13
LTELETIYVTKEHLQETDVVRAVYRVLPNCPSVALKKKAKCLLSKWKA [K28P]	-0.379 ± 0.13
LTELETIYVTKEHLQETDVVRAVYRVLSNCPSVALKKKAKCLLSKWKA [K28S]	-0.368 ± 0.1
LTELETIYVTKEHLQETDVVRAVYRVLANCPSVALKKKAKCLLSKWKA [K28A]	-0.509 ± 0.09

Variant	abundance fitness
LTELETIYVTKEHLQETDVVRAVYRVLNNCPSVALKKKAKCLLSKWKA [K28N]	-0.445 ± 0.14
LTELETIYVTKEHLQETDVVRAVYRVNKNCPSVALKKKAKCLLSKWKA [L27N]	-0.846 ± 0.26
LTELETIYVTKEHLQETDVVRAVYRVSKNCPSVALKKKAKCLLSKWKA [L27S]	-0.966 ± 0.15
LTELETIYVTKEHLQETDVVRAVYRVAKNCPSVALKKKAKCLLSKWKA [L27A]	-0.593 ± 0.11
LTELETIYVTKEHLQETDVVRAVYRVRKNCPSVALKKKAKCLLSKWKA [L27R]	-0.848 ± 0.1
LTELETIYVTKEHLQETDVVRAVYRVCKNCPSVALKKKAKCLLSKWKA [L27C]	-0.994 ± 0.21
LTELETIYVTKEHLQETDVVRAVYRVIKNCPSVALKKKAKCLLSKWKA [L27I]	-0.053 ± 0.14
LTELETIYVTKEHLQETDVVRAVYRVVKNCPSVALKKKAKCLLSKWKA [L27V]	-0.445 ± 0.091
LTELETIYVTKEHLQETDVVRAVYRVPKNCPSVALKKKAKCLLSKWKA [L27P]	-0.444 ± 0.18
LTELETIYVTKEHLQETDVVRAVYRVTKNCPSVALKKKAKCLLSKWKA [L27T]	-0.883 ± 0.14
LTELETIYVTKEHLQETDVVRAVYRVYKNCPSVALKKKAKCLLSKWKA [L27Y]	-0.352 ± 0.14
LTELETIYVTKEHLQETDVVRAVYRVEKNCPSVALKKKAKCLLSKWKA [L27E]	-0.932 ± 0.16
LTELETIYVTKEHLQETDVVRAVYRVDKNCPSVALKKKAKCLLSKWKA [L27D]	-0.901 ± 0.23
LTELETIYVTKEHLQETDVVRAVYRVKKNCPSVALKKKAKCLLSKWKA [L27K]	-0.845 ± 0.17
LTELETIYVTKEHLQETDVVRAVYRVFKNCPSVALKKKAKCLLSKWKA [L27F]	-0.754 ± 0.27
LTELETIYVTKEHLQETDVVRAVYRVQKNCPSVALKKKAKCLLSKWKA [L27Q]	-0.648 ± 0.27
LTELETIYVTKEHLQETDVVRAVYRVGKNCPSVALKKKAKCLLSKWKA [L27G]	-0.88 ± 0.094
LTELETIYVTKEHLQETDVVRAVYRVWKNCPSVALKKKAKCLLSKWKA [L27W]	-0.031 ± 0.1
LTELETIYVTKEHLQETDVVRAVYRVLKNWPSVALKKKAKCLLSKWKA [C30W]	0.119 ± 0.075
LTELETIYVTKEHLQETDVVRAVYRVLKNQPSVALKKKAKCLLSKWKA [C30Q]	-0.189 ± 0.12
LTELETIYVTKEHLQETDVVRAVYRVLKNVPSVALKKKAKCLLSKWKA [C30V]	0.062 ± 0.08
LTELETIYVTKEHLQETDVVRAVYRVLKNAPSVALKKKAKCLLSKWKA [C30A]	-0.338 ± 0.11
LTELETIYVTKEHLQETDVVRAVYRVLKNIPSVALKKKAKCLLSKWKA [C30I]	0.204 ± 0.15
LTELETIYVTKEHLQETDVVRAVYRVLKNLPSVALKKKAKCLLSKWKA [C30L]	0.075 ± 0.086
LTELETIYVTKEHLQETDVVRAVYRVLKNFPSVALKKKAKCLLSKWKA [C30F]	0.121 ± 0.14
LTELETIYVTKEHLQETDVVRAVYRVLKNGPSVALKKKAKCLLSKWKA [C30G]	0.012 ± 0.064
LTELETIYVTKEHLQETDVVRAVYRVLKNNPSVALKKKAKCLLSKWKA [C30N]	-0.274 ± 0.14

Source: the Human Domainome abundance scans (Beltran et al. 2025)
